Experimental data: article PMC3170326, “AKAP12 and AKAP5 form higher-order hetero-oligomers” (Journal of Molecular Signaling, 2011)

Key:
[1] = molecular target: His-tagged AKAP12 (purified, used for steric-exclusion chromatography) (human) (UniProt Q02952); assay: SEC; purified His-tagged AKAP5 or AKAP12 alone on HiPrep Sephacryl S-400 HR 16/60, PBS with 0.01% NaN3; fractions analysed by SDS-PAGE and immunoblot; homo-oligomer size from elution position
[2] = molecular target: T1, HA-tagged full-length AKAP5 (human, UniProt P24588 1-427); assay: co-IP; anti-HA immunoprecipitation from whole-cell lysates of A431 cells co-expressing an HA-tagged and a GFP-tagged AKAP; cells untreated, treated with 10 uM isoproterenol for 10-30 min, or washed free of agonist for 2 h; immunoblot; details: partners not purified
T1 construct: AKAP5 (AKAP79), human, full length; pCMV-HA vector; also called HA-AKAP5; source: A431 cells, transiently transfected, in lysate
T1 sequence (P24588 whole entry): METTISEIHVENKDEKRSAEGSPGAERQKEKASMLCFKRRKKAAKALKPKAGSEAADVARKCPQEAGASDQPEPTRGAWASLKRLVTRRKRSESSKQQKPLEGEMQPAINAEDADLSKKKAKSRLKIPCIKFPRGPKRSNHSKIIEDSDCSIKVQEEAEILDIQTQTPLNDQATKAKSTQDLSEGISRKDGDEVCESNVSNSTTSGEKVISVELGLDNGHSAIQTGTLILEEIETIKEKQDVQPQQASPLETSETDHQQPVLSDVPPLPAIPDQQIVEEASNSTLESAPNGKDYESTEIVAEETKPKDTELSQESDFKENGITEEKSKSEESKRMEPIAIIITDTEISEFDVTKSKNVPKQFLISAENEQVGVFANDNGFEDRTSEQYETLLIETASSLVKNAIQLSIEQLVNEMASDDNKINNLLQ

Molecule | stoichiometry N [1] | fold increase of AKAP12 co-precipitated with AKAP5 after 30 min isoproterenol, over unstimulated cells [2]
His-tagged AKAP12 (purified, used for steric-exclusion chromatography) (from UniProt Q02952 1-1782) (natural protein) | 4 | 
GFP-tagged AKAP12 (natural protein, human, UniProt Q02952 1-1782, looked up, AKAP12 (gravin), human, full length; also called AKAP12-GFP; full-length AKAP12; source: A431 cells, stably expressing, in lysate) MGAGSSTEQRSPEQPPEGSSTPAEPEPSGGGPSAEAAPDTTADPAIAASDPATKLLQKNGQLSTINGVAEQDELSLQEGDLNGQKGALNGQGALNSQEEEEVIVTEVGQRDSEDVSKRDSDKEMATKSAVVHDITDDGQEETPEIIEQIPSSESNLEELTQPTESQANDIGFKKVFKFVGFKFTVKKDKTEKPDTVQLLTVKKDEGEGAAGAGDHKDPSLGAGEAASKESEPKQSTEKPEETLKREQSHAEISPPAESGQAVEECKEEGEEKQEKEPSKSAESPTSPVTSETGSTFKKFFTQGWAGWRKKTSFRKPKEDEVEASEKKKEQEPEKVDTEEDGKAEVASEKLTASEQAHPQEPAESAHEPRLSAEYEKVELPSEEQVSGSQGPSEEKPAPLATEVFDEKIEVHQEEVVAEVHVSTVEERTEEQKTEVEETAGSVPAEELVEMDAEPQEAEPAKELVKLKETCVSGEDPTQGADLSPDEKVLSKPPEGVVSEVEMLSSQERMKVQGSPLKKLFTSTGLKKLSGKKQKGKRGGGDEESGEHTQVPADSPDSQEEQKGESSASSPEEPEEITCLEKGLAEVQQDGEAEEGATSDGEKKREGVTPWASFKKMVTPKKRVRRPSESDKEDELDKVKSATLSSTESTASEMQEEMKGSVEEPKPEEPKRKVDTSVSWEALICVGSSKKRARRGSSSDEEGGPKAMGGDHQKADEAGKDKETGTDGILAGSQEHDPGQGSSSPEQAGSPTEGEGVSTWESFKRLVTPRKKSKSKLEEKSEDSIAGSGVEHSTPDTEPGKEESWVSIKKFIPGRRKKRPDGKQEQAPVEDAGPTGANEDDSDVPAVVPLSEYDAVEREKMEAQQAQKSAEQPEQKAATEVSKELSESQVHMMAAAVADGTRAATIIEERSPSWISASVTEPLEQVEAEAALLTEEVLEREVIAEEEPPTVTEPLPENREARGDTVVSEAELTPEAVTAAETAGPLGAEEGTEASAAEETTEMVSAVSQLTDSPDTTEEATPVQEVEGGVPDIEEQERRTQEVLQAVAEKVKEESQLPGTGGPEDVLQPVQRAEAERPEEQAEASGLKKETDVVLKVDAQEAKTEPFTQGKVVGQTTPESFEKAPQVTESIESSELVTTCQAETLAGVKSQEMVMEQAIPPDSVETPTDSETDGSTPVADFDAPGTTQKDEIVEIHEENEVASGTQSGGTEAEAVPAQKERPPAPSSFVFQEETKEQSKMEDTLEHTDKEVSVETVSILSKTEGTQEADQYADEKTKDVPFFEGLEGSIDTGITVSREKVTEVALKGEGTEEAECKKDDALELQSHAKSPPSPVEREMVVQVEREKTEAEPTHVNEEKLEHETAVTVSEEVSKQLLQTVNVPIIDGAKEVSSLEGSPPPCLGQEEAVCTKIQVQSSEASFTLTAAAEEEKVLGETANILETGETLEPAGAHLVLEEKSSEKNEDFAAHPGEDAVPTGPDCQAKSTPVIVSATTKKGLSSDLEGEKTTSLKWKSDEVDEQVACQEVKVSVAIEDLEPENGILELETKSSKLVQNIIQTAVDQFVRTEETATEMLTSELQTQAHVIKADSQDAGQETEKEGEEPQASAQDETPITSAKEESESTAVGQAHSDISKDMSEASEKTMTVEVEGSTVNDQQLEEVVLPSEEEGGGAGTKSVPEDDGHALLAERIEKSLVEPKEDEKGDDVDDPENQNSALADTDASGGLTKESPDTNGPKQKEKEDAQEVELQEGKVHSESDKAITPQAQEELQKQERESAKSELTES |  | 4 fold
